Patent US20240336909

Legend:
[1] = target: AxCT mask27 EGFR EH104 L055 version 1
[2] = target: AxCT mask27 EGFR EH104 L069 version 1
[3] = target: AxCT mask27 EpCAM H90.2 L041 version 1
[4] = target: AxCT mask27 EGFR EH104 L064 version 1
[5] = target: AxCT mask27 EpCAM H90.2 NCLV
[6] = target: AxCT mask27 EpCAM H90.2 L075 version 1
[7] = target: AxCT mask27 EGFR EH104 L062 version 1
[8] = target: AxCT mask27 EpCAM H90.2 L061 version 1
[9] = target: AxCT mask27 EGFR EH104 L040 version 1
[10] = target: AxCT mask27 EpCAM H90.2 L063 version 1
[11] = target: AxCT mask27 EGFR EH104 L058 version 1
[12] = target: AxCT mask27 EGFR EH104 L057 version 1
[13] = target: AxCT mask27 EGFR EH104 L063 version 1
[14] = target: AxCT mask27 EGFR EH104 L073 version 1
[15] = target: AxCT mask27 EGFR EH104 L070 version 1
[16] = target: AxCT mask27 EpCAM H90.2 L060 version 1
[17] = target: AxCT mask27 EpCAM H90.2 L076 version 1
[18] = target: AxCT mask27 EGFR EH104 L056 version 1
[19] = target: AxCT mask27 EGFR EH104 L054 version 1
[20] = target: AxCT mask27 EpCAM H90.2 L073 version 1
[21] = target: AxCT mask27 EGFR EH104 L001 version 1
[22] = target: AxCT mask27 EGFR EH104 L065 version 1
[23] = target: AxCT mask27 EGFR EH104 L041 version 1
[24] = target: AxCT mask27 EGFR EH104 L059 version 1
[25] = target: AxCT mask27 EpCAM H90.2 L043 version 1
[26] = target: AxCT mask27 EGFR EH104 L066 version 1
[27] = target: AxCT mask27 EGFR EH104 L072 version 1
[28] = target: AxCT mask27 EpCAM H90.2 L059 version 1
[29] = target: AxCT mask27 EGFR EH104 L068 version 1
[30] = target: AxCT mask27 EpCAM H90.2 L064 version 1
[31] = target: AxCT mask27 EpCAM H90 L001 version 1
[32] = target: AxCT mask27 EGFR EH104 L060 version 1
[33] = target: AxCT mask27 EGFR EH104 L071 version 1
[34] = target: AxCT mask27 EGFR EH104 L043 version 1
[35] = target: AxCT mask27 EGFR EH104 L067 version 1
[36] = target: AxCT mask27 EpCAM H90.2 L040 version 1
[37] = target: AxCT mask27 EGFR EH104 L061 version 1

B1: MMP-12 (protein)
chain: GPVWRKHYITYRINNYTPDMNREDVDYAIRKAFQVWSNVTPLKFSKINTGMADILVVFARGAHGDFHAFDGKGGILAHAFGPGSGIGGDAHFDEDEFWTTHSGGTNLFLTAVHEIGHSLGLGHSSDPKAVMFPTYKYVDINTFRLSADDIRGIQSLYGDPKENQRLPNPDNSEPALCDPNLSFDAVTTVGNKIFFFKDRFFWLKVSERPKTSVNLISSLWPTLPSGIEAAYEIEARNQVFLFKDDKYWLISNLRPEPNYPKSIHSFGFPNFVKKIDAAVFNPRFYRTYFFVDNQYWRYDERRQMMDPGYPKLITKNFQGIGPKIDAVFYSKNKYYYFFQGSNQFEYDFLLQRITKTLKSNSWFGC
[1]
  Percent cleavage: 72%
[2]
  Percent cleavage: 63%
[3]
  Percent cleavage: 0%
[4]
  Percent cleavage: 34%
[5]
  Percent cleavage: 0%
[6]
  Percent cleavage: 0%
[7]
  Percent cleavage: 51%
[8]
  Percent cleavage: 64%
[9]
  Percent cleavage: 13%
[10]
  Percent cleavage: 33%
[11]
  Percent cleavage: 9%
[12]
  Percent cleavage: 18%
[13]
  Percent cleavage: 31%
[14]
  Percent cleavage: 31%
[15]
  Percent cleavage: 19%
[16]
  Percent cleavage: 16%
[17]
  Percent cleavage: 0%
[18]
  Percent cleavage: 12%
[19]
  Percent cleavage: 30%
[20]
  Percent cleavage: 36%
[21]
  Percent cleavage: 68%
[22]
  Percent cleavage: 68%
[23]
  Percent cleavage: 0%
[24]
  Percent cleavage: 62%
[25]
  Percent cleavage: 0%
[26]
  Percent cleavage: 16%
[27]
  Percent cleavage: 48%
[28]
  Percent cleavage: 71%
[29]
  Percent cleavage: 9%
[30]
  Percent cleavage: 36%
[31]
  Percent cleavage: 91%
[32]
  Percent cleavage: 18%
[33]
  Percent cleavage: 51%
[34]
  Percent cleavage: 0%
[35]
  Percent cleavage: 26%
[36]
  Percent cleavage: 0%
[37]
  Percent cleavage: 49%
